From the supplement of paper PMC10567573

B1: ZNF263 (parent)
chain: EKPYKCPECGEIFAHSSNLLRHQR

Variants of: B1
Test: protein stability index of a GFP-peptide fusion (GPS, HEK-293T) (PSI 1-6); higher = more stable
Settings: c terminus: a fixed tail appended
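Further: lentivirally expressed fusions sorted by FACS into six bins by GFP to DsRed ratio, PSI derived from sequencing read proportions per bin multiplied by bin number.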

Variant | protein stability index
H15A | 2.3
H15C | 3.26
A14L | 2.75
A14W | 2.69
A14D | 3.67
A14M | 2.29
A14H | 3.17
A14F | 2.57
A14K | 2.82
A14T | 2.58
A14G | 3.09
A14C | 2.37
A14V | 3.17
A14Q | 2.45
A14N | 2.7
A14I | 2.27
A14E | 4.13
A14Y | 2.79
A14P | 2.7
A14S | 2.38
A14R | 2.57
G10R | 2.37
G10D | 2.98
G10V | 1.78

Variant | protein stability index
G10P | 2.82
G10K | 2.31
G10Y | 1.69
G10Q | 1.84
G10W | 2.14
G10N | 1.58
G10T | 1.92
G10L | 1.74
G10H | 2.59
G10A | 1.88
G10M | 1.91
G10C | 1.94
G10S | 2.12
G10F | 2.03
G10I | 1.79
F13H | 4.03
F13I | 2.8
F13K | 2.55
F13G | 2.35
F13P | 2.62
F13W | 1.5
F13Y | 2.19
F13S | 2.75
F13Q | 2.33

Variant | protein stability index
F13C | 3.01
F13D | 3.37
F13N | 1.51
F13R | 3.24
F13V | 2.12
F13L | 2.54
F13M | 2.1
K5Y | 2.2
K5V | 2.62
K5W | 2.46
I12K | 1.12
I12Y | 3.01
I12S | 2.98
I12E | 2.94
I12L | 3.66
I12W | 2.23
I12A | 2.29
I12F | 1.82
I12P | 1.73
I12V | 1.7
I12C | 1.26
I12H | 1.57
I12G | 1.17
I12N | 1.83

Variant | protein stability index
I12Q | 3.23
I12D | 2.22
I12M | 2.04
E11A | 2.03
E11G | 1.98
E11K | 3
E11H | 1.89
E11F | 1.79
E11M | 1.72
E11N | 1.73
E11P | 1.85
E11I | 2.19
E11S | 1.13
E11L | 1.76
E11W | 2.42
E11V | 1.64
E11C | 2.25
E11T | 2.1
E11R | 3.09
E11Q | 2.68
E11D | 2.38
E11Y | 3.05
C9Q | 4.07
C9P | 3.86

Variant | protein stability index
C9G | 3.84
C9T | 3.02
C9V | 2.92
C9S | 3.72
C9W | 2.34
C9K | 3.5
C9R | 3.73
C9H | 2.56
C9E | 4.06
C9M | 3.83
C9L | 2.93
C9I | 2.72
C9N | 3.48
C9Y | 3.45
C9D | 3.74
C9A | 3.62
C9F | 2.71
C6Y | 3.05
C6F | 3.46
C6R | 3.08
C6P | 3.76
C6H | 2.71
C6D | 3.49
C6L | 3.19

Variant | protein stability index
C6E | 3.76
C6N | 3.74
C6K | 3.03
C6Q | 3.6
C6V | 3.35
C6T | 3.45
C6I | 3.23
C6S | 2.88
C6A | 3.37
C6W | 2.47
P7S | 2.8
P7F | 2.37
P7C | 1.67
P7D | 3.71
P7K | 1.49
P7W | 2.29
P7H | 2.25
P7M | 2.49
P7G | 2.14
P7Q | 2.46
P7T | 1.82
P7I | 2.28
P7E | 2.85
P7Y | 2.7

Variant | protein stability index
P7V | 2.68
P7N | 2.21
P7L | 2.33
P7R | 1.62
P7A | 2.24
E8W | 1.88
E8T | 2.74
E8V | 2.27
E8A | 2.51
E8F | 2
E8R | 2.85
E8H | 3.07
E8Y | 2.86
E8I | 2.04
E8C | 3.16
E8N | 2.1
E8S | 2.28
E8K | 3.12
E8Q | 1.71
E8M | 1.95
E8P | 2.74
E8D | 3.18
E8L | 2.37
